The target of experiment [1] is T1, human PILRA, G78 variant, ectopically expressed on 293 cells (human, UniProt Q9UKJ1 20-303).
T1 construct: the cells are labelled G78; also called hA G78 OE; hA
Nature of the experiment: flow cytometry, 293 cells expressing target. The protocol: (§1) Briefly, conditioned media containing antibodies were incubated with 293 cells for 30 min at 4° C., washed twice, and then detected with anti-mouse IgG Alexa 647.
Background: Flow cytometry measures light scatter and fluorescence of single cells or particles in a stream.

In experiment [2] the target is T2, human PILRB, ectopically expressed on 293 cells (human, UniProt Q9UKJ0 20-227).
T2 construct: also called hB
Nature of the experiment: flow cytometry, 293 cells expressing target. The protocol:
as §1

Experiment [3] has as its target cynomolgus PILRA, ectopically expressed on 293 cells (cynomolgus monkey). The experiment is described as follows: flow cytometry, 293 cells expressing target. The protocol: as §1
In experiment [4] the target is T3, murine PILRA, ectopically expressed on 293 cells (murine, UniProt Q2YFS3 32-302).
T3 construct: also called mA
The experiment is described as follows: flow cytometry, 293 cells expressing target. As to the method:
as §1

The target in experiment [5] is T4, murine PILRB, ectopically expressed on 293 cells (murine, UniProt Q2YFS2 29-224).
T4 construct: whole, on cells; also called mB
The experiment is described as follows: flow cytometry, 293 cells expressing target. As to the method: as §1

Experiment [6] concerns the target T5, human PILRA, c-term His-Avi tag (human, UniProt Q9UKJ1 20-197, limits assumed).
T5 construct: not shown: C-terminal His-Avi tag
The experiment is described as follows: SPR (Biacore), antibody captured, PILRA as analyte. As to the method: Experiments were performed to determine the kinetics of anti-PILRA antibody binding to human […]. The assay is depicted in FIG. 6. A rabbit anti-PILRA was used as a positive control, and H1 LALAPS was used as a negative control. Human PILRA (human PILRA, c-term His-Avi tag, 0.68 mg/mi) was used as the antigen. The running buffer was HBSTE/0.5% BSA, pH 7.4, and the regeneration solution was 10 mM glycine-HCl (pH 2.1). In the assay, antibodies were captured at 10 μg/ml by immobilized anti-huFc or anti-msFc on a Biacore CM5 chip, and human PILRA flowed at 33, 100, and 300 nM. The surface was regenerated after each analyte, and all curves were double-referenced with buffer injections.
In general terms: SPR reads the build-up and loss of mass on a sensor chip optically.

Sequence of cynomolgus PILRA, ectopically expressed on 293 cells (cynomolgus monkey) (chain, as listed by the source): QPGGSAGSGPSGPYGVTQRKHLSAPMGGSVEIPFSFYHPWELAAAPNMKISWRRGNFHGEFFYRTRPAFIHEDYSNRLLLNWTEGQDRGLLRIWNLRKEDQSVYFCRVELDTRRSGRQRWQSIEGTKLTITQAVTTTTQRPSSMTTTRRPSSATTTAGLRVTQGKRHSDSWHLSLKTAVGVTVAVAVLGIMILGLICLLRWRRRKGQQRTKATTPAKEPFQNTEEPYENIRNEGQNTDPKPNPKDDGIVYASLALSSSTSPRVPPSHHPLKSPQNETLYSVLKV
T3 sequence (Q2YFS3 32-302): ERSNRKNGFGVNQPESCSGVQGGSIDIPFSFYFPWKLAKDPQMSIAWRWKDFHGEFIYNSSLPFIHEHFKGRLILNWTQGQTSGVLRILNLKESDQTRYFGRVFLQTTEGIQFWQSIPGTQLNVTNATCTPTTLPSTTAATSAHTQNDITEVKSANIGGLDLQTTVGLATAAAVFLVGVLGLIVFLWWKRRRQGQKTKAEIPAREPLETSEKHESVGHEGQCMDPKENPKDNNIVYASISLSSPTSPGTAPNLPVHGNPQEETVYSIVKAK
T5 sequence (Q9UKJ1 20-197 limits assumed): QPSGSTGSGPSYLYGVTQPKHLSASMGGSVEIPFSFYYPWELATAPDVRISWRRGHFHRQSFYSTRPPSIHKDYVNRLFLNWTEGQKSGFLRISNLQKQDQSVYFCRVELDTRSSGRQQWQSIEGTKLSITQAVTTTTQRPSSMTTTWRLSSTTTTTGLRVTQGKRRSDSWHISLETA
T2 sequence (Q9UKJ0 20-227): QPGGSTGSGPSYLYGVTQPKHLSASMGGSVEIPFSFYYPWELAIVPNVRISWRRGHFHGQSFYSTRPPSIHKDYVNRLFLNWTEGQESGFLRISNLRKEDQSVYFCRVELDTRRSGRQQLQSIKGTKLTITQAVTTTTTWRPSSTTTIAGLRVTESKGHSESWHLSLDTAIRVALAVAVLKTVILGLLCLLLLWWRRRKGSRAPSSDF
T1 sequence (Q9UKJ1 other isoform, or with tags, fused parts or gaps mutant): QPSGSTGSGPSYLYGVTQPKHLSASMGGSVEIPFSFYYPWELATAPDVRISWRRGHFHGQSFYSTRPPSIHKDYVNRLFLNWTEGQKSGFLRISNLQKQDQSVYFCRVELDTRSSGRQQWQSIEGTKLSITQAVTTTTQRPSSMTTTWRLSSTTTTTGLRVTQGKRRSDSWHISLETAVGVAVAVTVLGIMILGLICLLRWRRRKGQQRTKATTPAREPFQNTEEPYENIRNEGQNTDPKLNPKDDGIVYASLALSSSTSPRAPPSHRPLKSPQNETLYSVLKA
T4 sequence (Q2YFS2 29-224): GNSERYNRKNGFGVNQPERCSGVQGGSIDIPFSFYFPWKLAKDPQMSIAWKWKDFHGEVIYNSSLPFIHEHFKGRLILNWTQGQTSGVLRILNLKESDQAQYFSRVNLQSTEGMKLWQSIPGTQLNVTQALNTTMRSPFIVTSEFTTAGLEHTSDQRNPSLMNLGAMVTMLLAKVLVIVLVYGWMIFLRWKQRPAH

B1: E1 (antibody, V domains shown)
VH: EVQLVESGGGLVQPGESLKLSCESNEYEFPSHDMSWVRKTPEKRLELVAAINSDGGSTYYPDTMERRFIISRDNTKKTLYLQMSSLRSEDTALYYCARQLMGTGAMDYWGQGTSVTVSS
VL: DIQMTQSSSYLSVSLGGRVTITCKASDHINNWLAWYQQKPGNAPRLLISGATSLETGVPSRFSGSGSGKDYTLSITSLQTEDVATYYCQQYWSTPYTFGGGTKLEIK
notes: second hybridoma campaign
As to B1, the 50% effective concentration (EC50) – broadly, the midpoint of the concentration-response curve – in experiment [1] came to 40.4 µg/mL. The binding result in experiment [2], in experiment [3], in experiment [4] and in experiment [5] was “no binding” each time.

B2: E3 (antibody, V domains shown)
VH: QAYLQQSGAELVRSGASVKMSCKASGNTFTYYNLHWIRQTPGQGLEWIGYIFPGNGDAYYNQNFKGKATLTADTSSSTAYMQISSLTFEDSAVYFCARSPHYYGSGFDYWGQGTPLTVSS
VL: DIQMTQSSSYLSVSLGGGVTITCKASDHINNWLAWYQQKPGNAPRLLISGATSLETGVPSRFSGSGSGKDYTLSITSLQTEDVATYYCQQYWSTPWTFGGGTKLEIK
notes: second hybridoma campaign
Regarding B2, the 50% effective concentration (EC50) was determined as 0.22 µg/mL in experiment [1], 0.78 µg/mL in experiment [2] and 0.15 µg/mL in experiment [3]. Further, the binding result in experiment [4] and in experiment [5] was “no binding” throughout.

B3: E9 (antibody, V domains shown)
VH: QVQLVQSGAEVKKPGASVKVSCKASGGTFSSYSINWVRQAPGQGLEWMGWINPHSGATKYAERFQGRVTMTRDTSTSTVYMELSSLRSEDTAVYYCASAEEPYDILTGYYGGDAFDIWGQGTMVTVSS
VL: DIQMTQSPSSLSASVGDRVTITCRASQSISKYLNWYQQKPGKAPKLLIYDASNLQAGVPSRFSGSGSGTDFTLTISSLQPEDFATYYCQQANSFPYTFGQGTKLEIK
notes: phage campaign
B3 had an EC50 in experiment [1] of 1.2 µg/mL. In addition, the binding result in experiment [2], in experiment [3], in experiment [4] and in experiment [5] was “no binding” each time.

B4: E6 (antibody, V domains shown)
VH: QVQLVQSGAEVKKPGASVKVSCKASGGTFSSYAISWVRQAPGQGLEWMGWINPNSGGTNFAQKFQGRVTMTRDTSTSTVYMELSSLRSEDTAVYYCARGSGSYPLDYWGRGTLVTVSS
VL: DIQMTQSPSSLSASVGDRVTITCRASQDISTWLAWYQQKPGKAPKLLIYDASSLESGVPSRFSGSGSGTDFTLTISSLQPEDFATYYCQQTYSAPYTFGQGTKLEIK
notes: phage campaign
On to B4, for which the binding result in experiment [2], in experiment [3], in experiment [4] and in experiment [5] was “no binding” in each case.

B5: E11 (antibody, V domains shown)
VH: QVQLVQSGAEVKKPGSSVKVSCKASGGTFSSYDISWVRQAPGQGLEWMGGIIPTFVTPKYAQKFQGRVTITADESTSTAYMELSSLRSEDTAVYYCAREGPKQLEEYYYYYMDVWGKGTTVTVSS
VL: DIQMTQSPSSLSASVGDRVTITCRATQAISNSLAWYQQKPGKAPKLLIYAASYLQSGVPSRFSGSGSGTDFTLTISSLQPEDFATYYCQQAYSFPWTFGQGTKLEIK
notes: phage campaign
B5: the EC50 came to 0.2 µg/mL in experiment [1] and 5.9 µg/mL in experiment [2]. In addition, the binding result in experiment [3], in experiment [4] and in experiment [5] was “no binding” each time.

B6: E16 (antibody, V domains shown)
VH: QVQLKESGPGLVAPSQSLSITCTVSGFSLSGYGVNWVRHLPGKGLEWLGMIWGDGHTDYNSALKSRLSISKDNSKSQVFLKMNSLQTDDTARYYCARDPRFYYGSGPYWYFDVWGAGTTVTVSS
VL: DIVMTQSQKFMSTSVGDRVNITCKASQNVGTAVAWYQQKPGQSPKLLIYSASNRYTGVPDRFTGSGSGTDFTLTISNMQSEDLADYFCQQYSSYPLTFAVGTKLELK
notes: B-cell cloning campaign (mice)
As to B6, the EC50 in experiment [2] stood at 3.1 µg/mL. Besides, the binding result in experiment [4] and in experiment [5] was “no binding” each time.

B7: E10 (antibody, V domains shown)
VH: EVQLLESGGGLVKPGGSLRLSCAASGFTFSNYAMSWVRQAPGKGLEWVAVIYSGADTYYADSVKGRFTISRDDSKNTLYLQMNSLKTEDTAVYYCTRDIGLNYGDYELFDYWGQGTLVTVSS
VL: DIVMTQSPLSLPVTPGEPASISCRSSQSLLHSNGYNYLDWYLQKPGQSPQLLIYDASNLETGVPDRFSGSGSGTDFTLKISRVEAEDVGVYYCMQGLQTPYVFGQGTKLEIK
notes: phage campaign
B7 displayed a concentration for a half-maximal effect (EC50) in experiment [1] of 0.1 µg/mL. Moreover, the binding result in experiment [2], in experiment [3], in experiment [4] and in experiment [5] was “no binding” in each case. For the same molecule, in experiment [6], the Kd (usually the free concentration of one partner at which half of the binding sites on the other are occupied at equilibrium, for simple one-to-one binding) came out at 14.5 nM. In experiment [6], the koff (in general, the rate constant with which the complex falls apart) worked out at 0.0016 s⁻¹. Also, in experiment [6], the on-rate (kon) (commonly a measure of how fast the partners come together) is 110000 M⁻¹ s⁻¹.

B8: A11 (antibody, V domains shown)
VH: QVQLVQSGAEVKKPGASVKVSCKASGYTFTSYYMHWVRQAPGQGLEWMGWINPNNGDTNYAQKFQGRVTMTRDTSTSTVYMELSSLRSEDTAVYYCARAGYFDWLLDYYGMDVWGQGTTVTVSS
VL: DIVMTQSPLSLPVTPGEPASISCRSSQSLLHSNGYNYLDWYLQKPGQSPQLLIYDASNLETGVPDRFSGSGSGTDFTLKISRVEAEDVGVYYCMQALQTPFGPGTKVDIK
notes: phage campaign; same VH/VL as E17
B8 returned an EC50 in experiment [1] of 0.6 µg/mL. The molecule also displayed an EC50 in experiment [2] of 1.1 µg/mL. A half-maximal effect in experiment [3] (EC50) was put at 10.8 µg/mL. In experiment [6], this molecule returned a dissociation constant (Kd) of 14.4 nM, a koff of 0.0014 s⁻¹ and a kon of 96000 M⁻¹ s⁻¹.

B9: E2 (antibody, V domains shown)
VH: EVQLQESGPSLVKPSQTLSLTCSVTGDSITSGYWNWIRKFPGDKLEYMGYISYTGTTYYNPSLKSRVSITRDTSKNQYYLQLHSVTTEDTATYYCARYPYGNFPFDYWGQGTTLTVSS
VL: SIVMTQTPKFLLVSAGDRVTITCKASQSVRNDVAWYQQRPGQSPKLLIFYASSRYIGAPDRFTGSGYGTDFTFTISTVQAEDLAVYFCQQDYSSPYTFGGGTTLEIK
notes: second hybridoma campaign
As for B9, the EC50 in experiment [1] was determined as 0.4 µg/mL; in experiment [2] it was 2.9 µg/mL; in experiment [3], 92 µg/mL. The binding result in experiment [4] and in experiment [5] was “no binding” each time.

B10: E14 (antibody, V domains shown)
VH: QVQLVQSGAEVKKPGSSVKVSCKASGYTFTNYDINWVRQAPGQGLEWMGGIIPIFGTANYAQKFQGRVTITADESTSTAYMELSSLRSEDTAVYYCTNGVGAGWFDLWGRGTLVTVSS
VL: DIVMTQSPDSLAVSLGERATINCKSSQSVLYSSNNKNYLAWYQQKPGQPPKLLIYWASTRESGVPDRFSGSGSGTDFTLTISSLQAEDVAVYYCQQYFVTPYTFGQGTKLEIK
notes: phage campaign
For the molecule B10, the concentration for a half-maximal effect (EC50) was 0.4 µg/mL in experiment [1] and 0.6 µg/mL in experiment [3]. Also, the binding result in experiment [2], in experiment [4] and in experiment [5] was “no binding” in each case.

B11: E8 (antibody, V domains shown)
VH: QVQLVQSGAEVKKPGASVKVSCKASGYAFTNYDINWVRQAPGQGLEWLGWINPYSGDTNYAQKLQGRVTMTRDTSTSTVYMELSSLRSEDTAVYYCTIPSSYGEYYYYYMDVWGKGTTVTVSS
VL: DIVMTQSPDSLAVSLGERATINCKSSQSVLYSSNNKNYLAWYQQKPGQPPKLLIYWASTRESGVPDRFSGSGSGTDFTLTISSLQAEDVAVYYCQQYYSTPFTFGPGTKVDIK
notes: phage campaign
As for B11, the 50% effective concentration (EC50) amounted to 0.4 µg/mL in experiment [1] and 2.9 µg/mL in experiment [2]. The binding result in experiment [3], in experiment [4] and in experiment [5] was “no binding” each time.

B12: E19 (antibody, V domains shown)
VH: QVQLVQSGAEVKKPGSSVKVSCKASGYLFSDYAMNWVRQAPGQGLEWVGWIIPNSGGTKFAQTFQGRVTITADESTSTAYMELSSLRSEDTAVYYCAREHGVVPADHYYYGMDVWGQGTTVTVSS
VL: EIVMTQSPATLSVSPGERATLSCRASQSISSSYLAWYQQKPGQAPRLLIYGASTRATGIPARFSGSGSGTEFTLTISSLQSEDFAVYYCQQYGRFPWTFGQGTKVEIK
notes: phage campaign; same VH/VL as A13
As for B12, in experiment [6], binding was characterised by a dissociation constant (Kd) of 86.1 nM, the koff was found to be 0.009 s⁻¹ and the kon amounted to 100000 M⁻¹ s⁻¹.

B13: E7 (antibody, V domains shown)
VH: EVQLLESGGGLVKPGGSLRLSCAASGFTFSSYWMSWVRQAPGKGLEWVSAISGSGGSTYYADSVKGRFTISRDDSKNTLYLQMNSLKTEDTAVYYCARHEEVTMVRGVIFAGGITNWGQGTTVTVSS
VL: EIVMTQSPATLSVSPGERATLSCRASESVTSSYLAWYQQKPGQAPRLLIYGASTRATGIPARFSGSGSGTEFTLTISSLQSEDFAVYYCQQYGSSPLTFGGGTKVEIK
notes: phage campaign
Turning to B13, the binding result in experiment [2], in experiment [3], in experiment [4] and in experiment [5] was “no binding” each time.

B14: A13 (antibody, V domains shown)
VH: QVQLVQSGAEVKKPGSSVKVSCKASGYLFSDYAMNWVRQAPGQGLEWVGWIIPNSGGTKFAQTFQGRVTITADESTSTAYMELSSLRSEDTAVYYCAREHGVVPADHYYYGMDVWGQGTTVTVSS
VL: EIVMTQSPATLSVSPGERATLSCRASQSISSSYLAWYQQKPGQAPRLLIYGASTRATGIPARFSGSGSGTEFTLTISSLQSEDFAVYYCQQYGRFPWTFGQGTKVEIK
notes: phage campaign; same VH/VL as E19
On to B14, for which the concentration giving a half-maximal response (EC50) was determined as 0.8 µg/mL in experiment [1], 6.2 µg/mL in experiment [2] and 0.8 µg/mL in experiment [3]. Further, the binding result in experiment [4] and in experiment [5] was “no binding” throughout.

These data come from patent US20240425587A1 (Alector, published 2024).
